# Test results as given in the MegaScale stability set (Tsuboyama et al. 2023).
# B1: EHEE_rd2_0196 (parent)
# chain: TETRTFDSEEEAKKAQKEAEKQGRTVTITRRDDRWEVRFD
# Variants of: B1
# Assay: folding stability dG (cDNA display proteolysis); higher = more stable
# Settings: PBS, room temperature
row,Variant,folding stability dG
1,D32I,2.11 kcal/mol
2,D32F,2.55 kcal/mol
3,D32S,2.45 kcal/mol
4,D32V,2.29 kcal/mol
5,D32E,3.07 kcal/mol
6,D32G,3.98 kcal/mol
7,D32W,1.84 kcal/mol
8,D32H,2.83 kcal/mol
9,D32P,1.75 kcal/mol
10,D32Q,2.97 kcal/mol
11,D32K,3.01 kcal/mol
12,D32M,2.61 kcal/mol
13,D32T,2.06 kcal/mol
14,D32R,2.48 kcal/mol
15,D32N,3.29 kcal/mol
16,D32A,2.92 kcal/mol
17,D32L,2.63 kcal/mol
18,D32Y,2.19 kcal/mol
19,R30A,2.3 kcal/mol
20,R30P,2.06 kcal/mol
21,R30Y,2.83 kcal/mol
22,R30W,2.68 kcal/mol
23,R30N,2.25 kcal/mol
24,R30E,2.02 kcal/mol

row,Variant,folding stability dG
1,R30S,1.94 kcal/mol
2,R30F,3.33 kcal/mol
3,R30T,1.91 kcal/mol
4,R30H,2.59 kcal/mol
5,R30I,2.46 kcal/mol
6,R30K,3.11 kcal/mol
7,R30D,0.983 kcal/mol
8,R30L,2.83 kcal/mol
9,R30M,2.8 kcal/mol
10,R30G,1.71 kcal/mol
11,R30V,2.5 kcal/mol
12,R30Q,2.81 kcal/mol
13,T27V,2.88 kcal/mol
14,T27R,2.56 kcal/mol
15,T27C,3.03 kcal/mol
16,T27L,1.89 kcal/mol
17,T27F,1.94 kcal/mol
18,T27Q,2.52 kcal/mol
19,T27W,1.8 kcal/mol
20,T27M,2 kcal/mol
21,T27E,2.03 kcal/mol
22,T27I,2.94 kcal/mol
23,T27S,2.76 kcal/mol
24,T27Y,1.95 kcal/mol

row,Variant,folding stability dG
1,T27N,2.11 kcal/mol
2,T27P,0.682 kcal/mol
3,T27K,2.45 kcal/mol
4,T27A,2.16 kcal/mol
5,T27H,2.59 kcal/mol
6,T27G,1.36 kcal/mol
7,T27D,1.37 kcal/mol
8,T25W,2.22 kcal/mol
9,T25Y,2.33 kcal/mol
10,R34H,3.13 kcal/mol
11,R34A,2.81 kcal/mol
12,R34T,2.7 kcal/mol
13,R34I,3.14 kcal/mol
14,R34G,3.16 kcal/mol
15,R34L,3.13 kcal/mol
16,R34N,2.41 kcal/mol
17,R34K,3.51 kcal/mol
18,R34P,0.669 kcal/mol
19,R34Q,2.96 kcal/mol
20,R34M,3.14 kcal/mol
21,R34D,2.03 kcal/mol
22,R34E,2.41 kcal/mol
23,R34V,3.14 kcal/mol
24,R34S,2.76 kcal/mol

row,Variant,folding stability dG
1,R34Y,3.18 kcal/mol
2,R34F,3.14 kcal/mol
3,R34W,2.79 kcal/mol
4,T29S,2.73 kcal/mol
5,T29M,2.48 kcal/mol
6,T29E,2.48 kcal/mol
7,T29K,2.44 kcal/mol
8,T29N,2.45 kcal/mol
9,T29W,1.8 kcal/mol
10,T29R,2.76 kcal/mol
11,T29F,2.3 kcal/mol
12,T29V,3.16 kcal/mol
13,T29I,3.19 kcal/mol
14,T29P,0.016 kcal/mol
15,T29L,2.53 kcal/mol
16,T29Q,2.59 kcal/mol
17,T29Y,2.21 kcal/mol
18,T29A,2.36 kcal/mol
19,T29H,2.75 kcal/mol
20,T29G,2.02 kcal/mol
21,T29D,1.71 kcal/mol
22,V26S,3 kcal/mol
23,V26F,0.841 kcal/mol
24,V26D,0.12 kcal/mol

row,Variant,folding stability dG
1,V26C,3.6 kcal/mol
2,V26K,0.184 kcal/mol
3,V26T,2.76 kcal/mol
4,V26Q,0.065 kcal/mol
5,V26M,1.18 kcal/mol
6,V26Y,0.849 kcal/mol
7,V26E,0.318 kcal/mol
8,V26N,0.69 kcal/mol
9,V26L,1.23 kcal/mol
10,V26W,0.253 kcal/mol
11,V26H,0.258 kcal/mol
12,V26I,2.08 kcal/mol
13,V26G,2.61 kcal/mol
14,V26A,3.4 kcal/mol
15,V26R,0.117 kcal/mol
16,V26P,1.87 kcal/mol
17,I28T,1.18 kcal/mol
18,I28G,0.232 kcal/mol
19,I28A,0.842 kcal/mol
20,I28P,0.277 kcal/mol
21,I28Y,0.332 kcal/mol
22,I28K,0.714 kcal/mol
23,I28H,-0.123 kcal/mol
24,I28M,1.77 kcal/mol

row,Variant,folding stability dG
1,I28S,0.645 kcal/mol
2,I28Q,0.41 kcal/mol
3,I28C,2.46 kcal/mol
4,I28L,2.06 kcal/mol
5,I28V,2.83 kcal/mol
6,I28D,-0.146 kcal/mol
7,I28F,0.342 kcal/mol
8,I28N,0.423 kcal/mol
9,I28E,0.07 kcal/mol
10,I28R,1.31 kcal/mol
11,R31D,1.79 kcal/mol
12,R31W,2.18 kcal/mol
13,R31I,3.27 kcal/mol
14,R31P,0.846 kcal/mol
15,R31K,3.13 kcal/mol
16,R31M,2.78 kcal/mol
17,R31Y,2.57 kcal/mol
18,R31E,2 kcal/mol
19,R31Q,2.55 kcal/mol
20,R31S,2.29 kcal/mol
21,R31F,2.75 kcal/mol
22,R31N,2.57 kcal/mol
23,R31T,2.56 kcal/mol
24,R31G,1.68 kcal/mol

row,Variant,folding stability dG
1,R31H,2.69 kcal/mol
2,R31A,2.38 kcal/mol
3,R31V,3.43 kcal/mol
4,R31L,2.9 kcal/mol
5,D33C,2.47 kcal/mol
6,D33E,2.7 kcal/mol
7,D33Y,1.48 kcal/mol
8,D33G,3.39 kcal/mol
9,D33M,1.95 kcal/mol
10,D33V,1.4 kcal/mol
11,D33T,2.09 kcal/mol
12,D33R,1.83 kcal/mol
13,D33Q,2.46 kcal/mol
14,D33S,2.36 kcal/mol
15,D33K,2.17 kcal/mol
16,D33N,3.08 kcal/mol
17,D33F,1.55 kcal/mol
18,D33L,1.71 kcal/mol
19,D33A,1.96 kcal/mol
20,D33P,1.21 kcal/mol
21,D33W,1.34 kcal/mol
22,D33H,2.5 kcal/mol
23,D33I,1.37 kcal/mol
